Data published in US20110020218A1 (PIERRE FABRE MEDICAMENT, published 2011).
Substitutions are numbered along the chain they refer to. Names may count otherwise. One block for each binder: values may come before it.

Key:
[1] = target: T1, human CXCR4 receptor (wild type) (human, UniProt P61073 1-352); assay: cell-based or functional assay
[2] = target: T1, human CXCR4 receptor (wild type); assay: flow cytometry competition with biotinylated murine 515H7 on CXCR4 transfected NIH3T3 cells
[3] = target: T1, human CXCR4 receptor (wild type); assay: SPA competition, Mab 100 nM, labelled competitor [125I]SDF-1 (1 nM), CHO-K1/human CXCR4 membranes
Experimental: CHO-K1 cells, stably and constitutively expressing human CXCR4 receptor were obtained upon transfection of naïve CHO-K¹ cells (ATCC CCL-61) with a mammalian expression vector carrying the whole coding sequence of human CXCR4 receptor (RefSeq NM_{—}003467). Cells were propagated in complete culture medium [DMEM-Ham's F12 supplemented with 5% fetal calf serum (FCS) and 500 μg/ml of geneticin]. Radioligand binding experiments were conducted on cell membranes obtained upon mechanical scrapping of CHO/CXCR4 cells in lysis buffer [Hepes 20 mM, pH 7.4, NaCl 150 mM] followed by centrifugation (10000 g, 15 min). […] Upon centrifugation [1000 g for 10 min.] radioactive counts were measured in a scintillation counter (TopCount, Perkin Elmer).

[4] = target: T2, CXCR2:YFP fusion protein (UniProt P25025 1-360); assay: BRET in transiently transfected HEK293 cells
T2 construct: whole, on cells; Transiently expressed in HEK293 cells for BRET; not shown: Yellow fluorescent protein (EYFP)
T2 sequence (looked up): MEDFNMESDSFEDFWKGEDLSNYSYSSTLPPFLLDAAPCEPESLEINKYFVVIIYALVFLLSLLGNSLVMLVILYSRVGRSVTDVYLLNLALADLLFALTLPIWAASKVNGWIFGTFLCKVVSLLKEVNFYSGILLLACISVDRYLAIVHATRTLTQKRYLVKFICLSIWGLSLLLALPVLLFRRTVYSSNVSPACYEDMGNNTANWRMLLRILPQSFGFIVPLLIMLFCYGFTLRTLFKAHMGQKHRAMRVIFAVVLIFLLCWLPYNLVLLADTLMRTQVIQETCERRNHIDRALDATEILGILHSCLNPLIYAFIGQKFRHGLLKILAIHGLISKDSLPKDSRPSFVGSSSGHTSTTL

% of inhibition of [35S]GTPγS binding stimulated by SDF-1 (100 nM) [1]: 86%
IC50, [35S]GTPγS binding, NIH3T3/CXCR4 cells [1]: 3.86 nM
inhibition of SDF-1-induced β-arrestin recruitment (BRET) [1]: ~94%
percentage of inhibition of SDF-1-induced BRET increase (CXCR4 homo-dimers) [1]: ~88%
B1: humanized antibody Hz515H7 VH1 D76N VL2 (antibody, human IgG1, kappa, V domains shown)
VH: EVQLVESGGGLVQPGRSLRLSCTASGFTFTDNYMSWVRQAPGKGLEWVGFIRNKANGYTTEYAASVKGRFTISRDNSKSIAYLQMNSLKTEDTAVYYCARDVGSNYFDYWGQGTLVTVSS
VL: DIVMTQSPSSLAVSLGERATMSCKSSQSLFNSRTRKNYLAWYQQKPGQSPKLLIYWASARDSGVPARFTGSGSETYFTLTISRVQAEDLAVYYCMQSFNLRTFGQGTKVEIKR

binding result [2]: binds
B2: humanized antibody Hz515H7 VH1 VL1 (antibody, human IgG1, kappa, V domains shown)
VH: B1 VH with N76D
VL: DIVMTQSPDSLAVSLGERATINCKSSQSLFNSRTRKNYLAWYQQKPGQPPKLLIYWASTRESGVPDRFSGSGSGTDFTLTISSLQAEDVAVYYCMQSFNLRTFGQGTKVEIKR
notes: Human IgG1/kappa format; no back mutations; also called 515H7 VH variant 1 VL variant 1

% inhibition of [125I]SDF-1 [3]: 55%
% of inhibition of [35S]GTPγS binding stimulated by SDF-1 (100 nM) [1]: 71%
IC50, [35S]GTPγS binding, Hela cells, SDF-1 10 nM [1]: 0.6 nM
IC50, [35S]GTPγS binding, NIH3T3/CXCR4 cells, SDF-1 10 nM [1]: 1.5 nM
decrease in SDF-1-induced U937 cells migration [1]: > 80%
inhibition of SDF-1-induced BRET increase (CXCR4 homo-dimers) [1]: 96%
inhibition of SDF-1-induced β-arrestin recruitment (BRET) [1]: 93%
B3: anti-CXCR4 chimeric Mab c515H7 (antibody, human IgG1, kappa, V domains shown)
VH: EVNLVESGGGLVQPGGSLRLSCATSGFTFTDNYMSWVRQPPGKALEWLGFIRNKANGYTTDYSASVRGRFTISRDNSQSILYLQMNALRAEDSATYYCARDVGSNYFDYWGQGTTLTVSS
VL: B1 VL with T5S, L15A, R18K, A19V, Q105G, V109L
notes: they may be whole chains; also called chimeric 515H7

% of inhibition of [35S]GTPγS binding stimulated by SDF-1 (100 nM) [1]: 69%
IC50, [35S]GTPγS binding, NIH3T3/CXCR4 cells [1]: 4.05 nM
inhibition of SDF-1-induced β-arrestin recruitment (BRET) [1]: ~81%
percentage of inhibition of SDF-1-induced BRET increase (CXCR4 homo-dimers) [1]: ~65%
B4: humanized antibody Hz515H7 VH1 D76N VL2.1 (antibody, human IgG1, kappa, V domains shown)
VH: B1 VH
VL: B1 VL with S9D, S49P, A66D, T69S

% of inhibition of [35S]GTPγS binding stimulated by SDF-1 (100 nM) [1]: 66%
IC50, [35S]GTPγS binding, NIH3T3/CXCR4 cells [1]: 5.19 nM
inhibition of SDF-1-induced β-arrestin recruitment (BRET) [1]: ~82%
percentage of inhibition of SDF-1-induced BRET increase (CXCR4 homo-dimers) [1]: ~33%
B5: humanized antibody Hz515H7 VH1 D76N VL2.2 (antibody, human IgG1, kappa, V domains shown)
VH: B1 VH
VL: B1 VL with S9D, S49P, A66D, L89V

% of inhibition of [35S]GTPγS binding stimulated by SDF-1 (100 nM) [1]: 58%
IC50, [35S]GTPγS binding, NIH3T3/CXCR4 cells [1]: 8.5 nM
inhibition of SDF-1-induced β-arrestin recruitment (BRET) [1]: ~71%
percentage of inhibition of SDF-1-induced BRET increase (CXCR4 homo-dimers) [1]: ~21%
B6: humanized antibody Hz515H7 VH1 D76N VL2.3 (antibody, human IgG1, kappa, V domains shown)
VH: B1 VH
VL: B1 VL with S9D, S49P, A66D, R83S, V84L

binding result [2]: binds
B7: hz515H7 VH1 combined with the chimeric VL (cVL) (antibody, human IgG1, kappa)
heavy: not shown
VL: DIVMSQSPSSLAVSAGEKVTMSCKSSQSLFNSRTRKNYLAWYQQKPGQSPKLLIYWASARDSGVPARFTGSGSETYFTLTISRVQAEDLAVYYCMQSFNLRTFGGGTKLEIKRTVAAPSVFIFPPSDEQLKSGTASVVCLLNNFYPREAKVQWKVDNALQSGNSQESVTEQDSKDSTYSLSSTLTLSKADYEKHKVYACEVTHQGLSSPVTKSFNRGEC
notes: Humanized VH variant with the chimeric (murine VL, human Ckappa) light chain of c515H7; IgG1/kappa; also called VH1 cVL

binding result [2]: binds
B8: hz515H7 VH1 VL2 (antibody, human IgG1, kappa)
heavy: not shown
light: B7 VL with S5T, A15L, K18R, V19A, G105Q, L109V
notes: human IgG1/kappa format; also called VH variant 1 combined with variant 2 of VL

IC50, [35S]GTPγS binding, Hela cells, SDF-1 10 nM [1]: 0.5 nM
IC50, [35S]GTPγS binding, NIH3T3/CXCR4 cells, SDF-1 10 nM [1]: 1.6 nM
inhibition of SDF-1-induced BRET increase (CXCR4 homo-dimers) [1]: 63%
inhibition of SDF-1-induced β-arrestin recruitment (BRET) [1]: ~20%
B9: anti-CXCR4 Mab 414H5 (antibody, V domains shown)
VH: EVKLVESGGGLVQPGGSLRLSCTTSGFTFTDYYMSWVRQSPGKALEWLTFIRNKANGYTTEYSASVKGRFTISRDNSQSILYLQMNTLRAEDSATYYCARDIPGFAYWGQGTLVTVSA
VL: DIVMSQSPSSLAVSAGEKVTMSCKSSQSLYNSRTRKNYLAWYQQKPGQSPKLLIYWASTRESGVPDRFTGSGSGTDFTLTITSVQAEDLAVFYCKQSYNLRTFGGGTKLEIK

% inhibition of [125I]SDF-1 [3]: 21%
IC50, [35S]GTPγS binding, Hela cells, SDF-1 10 nM [1]: 0.3 nM
IC50, [35S]GTPγS binding, NIH3T3/CXCR4 cells, SDF-1 10 nM [1]: 1.1 nM
decrease in SDF-1-induced U937 cells migration [1]: ~50%
inhibition of SDF-1-induced BRET increase (CXCR4 homo-dimers) [1]: 75%
inhibition of SDF-1-induced β-arrestin recruitment (BRET) [1]: ~63%
B10: anti-CXCR4 chimeric Mab c414H5 (antibody, human IgG1, kappa, V domains shown)
VH: B9 VH
VL: DIVMSQSPSSLAVSAGEKVTMSCKSSQSLYNSRTRKNYLAWYQQKPGQSPKLLIYWASTRESGVPDRFTGSGSGTDFTLTITSVQAEDLAVFYCKQSYNLRTFGGGTKLEIKR
notes: they may be whole chains; also called chimeric 414H5

% of inhibition of [35S]GTPγS binding stimulated by SDF-1 (100 nM) [1]: 71%
IC50, [35S]GTPγS binding, Hela cells, SDF-1 10 nM [1]: 0.2 nM
IC50, [35S]GTPγS binding, NIH3T3/CXCR4 cells, SDF-1 10 nM [1]: 1.9 nM
decrease in SDF-1-induced U937 cells migration [1]: > 80%
inhibition of SDF-1-induced BRET increase (CXCR4 homo-dimers) [1]: 69%
inhibition of SDF-1-induced β-arrestin recruitment (BRET) [1]: 95%
B11: anti-CXCR4 Mab 515H7 (antibody, V domains shown)
VH: B3 VH
VL: DIVMSQSPSSLAVSAGEKVTMSCKSSQSLFNSRTRKNYLAWYQQKPGQSPKLLIYWASARDSGVPARFTGSGSETYFTLTISRVQAEDLAVYYCMQSFNLRTFGGGTKLEIK

binding result [4]: binds
B12: CXCR4/Rluc fusion protein (receptor, UniProt P61073 1-352, looked up)
chain: MEGISIYTSDNYTEEMGSGDYDSMKEPCFREENANFNKIFLPTIYSIIFLTGIVGNGLVILVMGYQKKLRSMTDKYRLHLSVADLLFVITLPFWAVDAVANWYFGNFLCKAVHVIYTVNLYSSVLILAFISLDRYLAIVHATNSQRPRKLLAEKVVYVGVWIPALLLTIPDFIFANVSEADDRYICDRFYPNDLWVVVFQFQHIMVGLILPGIVILSCYCIIISKLSHSKGHQKRKALKTTVILILAFFACWLPYYIGISIDSFILLEIIKQGCEFENTVHKWISITEALAFFHCCLNPILYAFLGAKFKTSAQHALTSVSRGSSLKILSKGKRGGHSSVSTESESSSFHSS
notes: whole, on cells; Transiently expressed in HEK293 cells for BRET; also called CXCR4 tagged with luciferase; not shown: Renilla reniformis luciferase (Rluc)
